Columns and labels:
[1] = target: Sar1p (UniProt P20606 1-190); assay: pull-down
[2] = target: Glo3p (UniProt P38682 1-493); assay: pull-down
Glo3p, sequence (P38682 whole entry): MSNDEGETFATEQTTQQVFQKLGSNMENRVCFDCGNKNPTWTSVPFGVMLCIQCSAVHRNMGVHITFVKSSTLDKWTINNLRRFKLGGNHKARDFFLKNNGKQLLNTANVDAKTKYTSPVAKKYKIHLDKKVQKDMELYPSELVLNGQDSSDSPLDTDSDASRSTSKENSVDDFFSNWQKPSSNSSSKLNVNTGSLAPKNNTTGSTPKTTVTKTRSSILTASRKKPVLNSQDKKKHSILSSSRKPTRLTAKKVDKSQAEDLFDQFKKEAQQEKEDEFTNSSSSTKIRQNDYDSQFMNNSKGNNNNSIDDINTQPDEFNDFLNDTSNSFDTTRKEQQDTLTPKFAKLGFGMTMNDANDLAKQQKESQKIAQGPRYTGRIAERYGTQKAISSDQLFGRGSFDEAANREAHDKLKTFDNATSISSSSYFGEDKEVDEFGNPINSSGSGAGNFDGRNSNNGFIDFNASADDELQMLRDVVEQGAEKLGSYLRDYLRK

Sar1p, sequence (P20606 whole entry): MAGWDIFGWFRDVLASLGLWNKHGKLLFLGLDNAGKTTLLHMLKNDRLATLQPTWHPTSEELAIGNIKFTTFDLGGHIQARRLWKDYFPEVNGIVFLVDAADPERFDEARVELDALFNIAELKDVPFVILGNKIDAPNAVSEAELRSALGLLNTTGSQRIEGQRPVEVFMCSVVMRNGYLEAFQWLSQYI

B1: Bet1p-GST (domain or fragment)
chain: MSSRFAGGNAYQRDTGRTQLFGPADGSNSLDDNVSSALGSTDKLDYSQSTLASLESQSEEQMGAMGQRIKALKSLSLKMGDEIRGSNQTIDQLGDTFHNTSVKLKRTFGNMMEMARRSG
B1: binds [1].

B2: Bet1p-(41–119) (domain or fragment)
chain: TDKLDYSQSTLASLESQSEEQMGAMGQRIKALKSLSLKMGDEIRGSNQTIDQLGDTFHNTSVKLKRTFGNMMEMARRSG
B2: binds [2].

Source: PMC2173288 (The Journal of Cell Biology, 2002)
